The values that follow come from patent US20200024322A1 (Eli Lilly, published 2020).

Experiment [1] has as its target T1, human glucagon receptor (human, UniProt P47871 26-477).
T1 construct: whole, on cells; Used as crude membranes of stably transfected HEK293 cells; also called hGcgR; hGLcgR
The experiment is described as follows: SPA, [125I]-Gcg displacement, hGcgR membranes.

In experiment [2] the target is T2, human GIP receptor (human, UniProt P48546 22-466).
T2 construct: whole, on cells; Used as crude membranes of stably transfected CHO cells; also called hGIPR
T2 sequence (looked up): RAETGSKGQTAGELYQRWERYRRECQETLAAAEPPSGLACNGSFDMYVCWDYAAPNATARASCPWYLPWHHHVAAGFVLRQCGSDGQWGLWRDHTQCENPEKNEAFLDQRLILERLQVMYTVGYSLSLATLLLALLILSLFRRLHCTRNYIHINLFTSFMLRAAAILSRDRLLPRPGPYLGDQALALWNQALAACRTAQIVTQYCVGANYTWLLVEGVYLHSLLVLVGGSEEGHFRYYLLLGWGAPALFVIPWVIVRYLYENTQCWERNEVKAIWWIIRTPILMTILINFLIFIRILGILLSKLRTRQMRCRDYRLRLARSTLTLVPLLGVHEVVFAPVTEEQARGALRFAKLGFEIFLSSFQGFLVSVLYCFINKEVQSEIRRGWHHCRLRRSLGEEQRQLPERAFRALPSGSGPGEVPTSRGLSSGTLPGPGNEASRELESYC
The experiment is described as follows: SPA, [125I]-GIP displacement, hGIPR membranes.

In experiment [3] the target is T3, human GLP-1 receptor (human, UniProt P43220 24-463).
T3 construct: whole, on cells; Used as crude membranes of stably transfected HEK293 cells; also called hGLP1R; hGLP-1R
The experiment is described as follows: SPA, [125I]-GLP-1 displacement, hGLP-1R membranes.

Numbered stars: 1 amine (or outer) side, 2 acyl side, 3 side chain; on linkers, the order of the positions; unused ones are H or OH. Square brackets hold non-standard residues; d marks the D form. Side chains are listed from the residue outwards. Ends that are not written are not given here. * marks the point of attachment. C20 diacid = O=C(O)CCCCCCCCCCCCCCCCCCC(=O)*; γGlu = O=C(O)[C@H](CCC(=O)[*:2])N[*:1]; AEEA = NCCOCCOCC(=O)O; Aib = CC(C)(N)C(=O)O

T1 sequence (P47871 26-477): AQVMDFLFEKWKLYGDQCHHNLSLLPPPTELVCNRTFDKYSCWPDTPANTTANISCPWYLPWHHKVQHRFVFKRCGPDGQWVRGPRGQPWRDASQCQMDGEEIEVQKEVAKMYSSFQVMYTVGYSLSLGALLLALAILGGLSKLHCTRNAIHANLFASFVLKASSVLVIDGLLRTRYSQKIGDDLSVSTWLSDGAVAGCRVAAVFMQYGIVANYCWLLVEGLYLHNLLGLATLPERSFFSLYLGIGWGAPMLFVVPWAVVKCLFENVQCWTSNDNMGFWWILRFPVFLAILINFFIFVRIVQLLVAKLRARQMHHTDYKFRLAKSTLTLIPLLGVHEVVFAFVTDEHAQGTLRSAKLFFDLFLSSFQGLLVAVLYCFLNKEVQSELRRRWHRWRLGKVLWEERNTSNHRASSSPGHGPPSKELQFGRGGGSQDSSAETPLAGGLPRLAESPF

B1: Example 24 (peptide)
peptide: Y[Aib]EGTFTSDYK([AEEA-AEEA-γGlu-C20 diacid])ILLDKIAQ[Aib]AFIEYLIEGGPSSGAPPPS-NH2
modifications: N-terminus assumed
SMILES: CC[C@H](C)[C@H](NC(=O)[C@H](CCCCN)NC(=O)[C@H](CC(=O)O)NC(=O)[C@H](CC(C)C)NC(=O)[C@H](CC(C)C)NC(=O)[C@@H](NC(=O)[C@H](CCCCNC(=O)COCCOCCNC(=O)COCCOCCNC(=O)CC[C@H](NC(=O)CCCCCCCCCCCCCCCCCCC(=O)O)C(=O)O)NC(=O)[C@H](Cc1ccc(O)cc1)NC(=O)[C@H](CC(=O)O)NC(=O)[C@H](CO)NC(=O)[C@@H](NC(=O)[C@H](Cc1ccccc1)NC(=O)[C@@H](NC(=O)CNC(=O)[C@H](CCC(=O)O)NC(=O)C(C)(C)NC(=O)[C@@H](N)Cc1ccc(O)cc1)[C@@H](C)O)[C@@H](C)O)[C@@H](C)CC)C(=O)N[C@@H](C)C(=O)N[C@@H](CCC(N)=O)C(=O)NC(C)(C)C(=O)N[C@@H](C)C(=O)N[C@@H](Cc1ccccc1)C(=O)N[C@H](C(=O)N[C@@H](CCC(=O)O)C(=O)N[C@@H](Cc1ccc(O)cc1)C(=O)N[C@@H](CC(C)C)C(=O)N[C@H](C(=O)N[C@@H](CCC(=O)O)C(=O)NCC(=O)NCC(=O)N1CCC[C@H]1C(=O)N[C@@H](CO)C(=O)N[C@@H](CO)C(=O)NCC(=O)N[C@@H](C)C(=O)N1CCC[C@H]1C(=O)N1CCC[C@H]1C(=O)N1CCC[C@H]1C(=O)N[C@@H](CO)C(N)=O)[C@@H](C)CC)[C@@H](C)CC
The term Ki denotes a dissociation constant, usually derived from enzyme kinetics or from competition with a known ligand. For the molecule B1, the Ki was 49.8 nM in experiment [1], 0.232 nM in experiment [2] and 5.04 nM in experiment [3].

B2: Example 31 (peptide)
peptide: Y[Aib]EGTFTSDYSILLDKIAK([AEEA-AEEA-γGlu-C20 diacid])[Aib]AFIEYLIEGGPSSGAPPPS-NH2
modifications: N-terminus assumed
SMILES: CC[C@H](C)[C@H](NC(=O)[C@H](CCCCN)NC(=O)[C@H](CC(=O)O)NC(=O)[C@H](CC(C)C)NC(=O)[C@H](CC(C)C)NC(=O)[C@@H](NC(=O)[C@H](CO)NC(=O)[C@H](Cc1ccc(O)cc1)NC(=O)[C@H](CC(=O)O)NC(=O)[C@H](CO)NC(=O)[C@@H](NC(=O)[C@H](Cc1ccccc1)NC(=O)[C@@H](NC(=O)CNC(=O)[C@H](CCC(=O)O)NC(=O)C(C)(C)NC(=O)[C@@H](N)Cc1ccc(O)cc1)[C@@H](C)O)[C@@H](C)O)[C@@H](C)CC)C(=O)N[C@@H](C)C(=O)N[C@@H](CCCCNC(=O)COCCOCCNC(=O)COCCOCCNC(=O)CC[C@H](NC(=O)CCCCCCCCCCCCCCCCCCC(=O)O)C(=O)O)C(=O)NC(C)(C)C(=O)N[C@@H](C)C(=O)N[C@@H](Cc1ccccc1)C(=O)N[C@H](C(=O)N[C@@H](CCC(=O)O)C(=O)N[C@@H](Cc1ccc(O)cc1)C(=O)N[C@@H](CC(C)C)C(=O)N[C@H](C(=O)N[C@@H](CCC(=O)O)C(=O)NCC(=O)NCC(=O)N1CCC[C@H]1C(=O)N[C@@H](CO)C(=O)N[C@@H](CO)C(=O)NCC(=O)N[C@@H](C)C(=O)N1CCC[C@H]1C(=O)N1CCC[C@H]1C(=O)N1CCC[C@H]1C(=O)N[C@@H](CO)C(N)=O)[C@@H](C)CC)[C@@H](C)CC
As to B2, the Ki in experiment [1] is 290 nM; in experiment [2] it was 0.0275 nM; in experiment [3], 6.58 nM.

B3: Example 25 (peptide)
peptide: Y[Aib]EGTFTSDYSK([AEEA-AEEA-γGlu-C20 diacid])LLDKIAQ[Aib]AFIEYLIEGGPSSGAPPPS-NH2
modifications: N-terminus assumed
SMILES: CC[C@H](C)[C@H](NC(=O)[C@H](CCCCN)NC(=O)[C@H](CC(=O)O)NC(=O)[C@H](CC(C)C)NC(=O)[C@H](CC(C)C)NC(=O)[C@H](CCCCNC(=O)COCCOCCNC(=O)COCCOCCNC(=O)CC[C@H](NC(=O)CCCCCCCCCCCCCCCCCCC(=O)O)C(=O)O)NC(=O)[C@H](CO)NC(=O)[C@H](Cc1ccc(O)cc1)NC(=O)[C@H](CC(=O)O)NC(=O)[C@H](CO)NC(=O)[C@@H](NC(=O)[C@H](Cc1ccccc1)NC(=O)[C@@H](NC(=O)CNC(=O)[C@H](CCC(=O)O)NC(=O)C(C)(C)NC(=O)[C@@H](N)Cc1ccc(O)cc1)[C@@H](C)O)[C@@H](C)O)C(=O)N[C@@H](C)C(=O)N[C@@H](CCC(N)=O)C(=O)NC(C)(C)C(=O)N[C@@H](C)C(=O)N[C@@H](Cc1ccccc1)C(=O)N[C@H](C(=O)N[C@@H](CCC(=O)O)C(=O)N[C@@H](Cc1ccc(O)cc1)C(=O)N[C@@H](CC(C)C)C(=O)N[C@H](C(=O)N[C@@H](CCC(=O)O)C(=O)NCC(=O)NCC(=O)N1CCC[C@H]1C(=O)N[C@@H](CO)C(=O)N[C@@H](CO)C(=O)NCC(=O)N[C@@H](C)C(=O)N1CCC[C@H]1C(=O)N1CCC[C@H]1C(=O)N1CCC[C@H]1C(=O)N[C@@H](CO)C(N)=O)[C@@H](C)CC)[C@@H](C)CC
For the molecule B3, the figures for the Ki in experiment [1], in experiment [2] and in experiment [3] were 81.1 nM, 0.179 nM and 4.8 nM, respectively.

B4: Example 30 (peptide)
peptide: Y[Aib]EGTFTSDYSILLDKIK([AEEA-AEEA-γGlu-C20 diacid])Q[Aib]AFIEYLIEGGPSSGAPPPS-NH2
modifications: N-terminus assumed
SMILES: CC[C@H](C)[C@H](NC(=O)[C@H](CC(C)C)NC(=O)[C@H](Cc1ccc(O)cc1)NC(=O)[C@H](CCC(=O)O)NC(=O)[C@@H](NC(=O)[C@H](Cc1ccccc1)NC(=O)[C@H](C)NC(=O)C(C)(C)NC(=O)[C@H](CCC(N)=O)NC(=O)[C@H](CCCCNC(=O)COCCOCCNC(=O)COCCOCCNC(=O)CC[C@H](NC(=O)CCCCCCCCCCCCCCCCCCC(=O)O)C(=O)O)NC(=O)[C@@H](NC(=O)[C@H](CCCCN)NC(=O)[C@H](CC(=O)O)NC(=O)[C@H](CC(C)C)NC(=O)[C@H](CC(C)C)NC(=O)[C@@H](NC(=O)[C@H](CO)NC(=O)[C@H](Cc1ccc(O)cc1)NC(=O)[C@H](CC(=O)O)NC(=O)[C@H](CO)NC(=O)[C@@H](NC(=O)[C@H](Cc1ccccc1)NC(=O)[C@@H](NC(=O)CNC(=O)[C@H](CCC(=O)O)NC(=O)C(C)(C)NC(=O)[C@@H](N)Cc1ccc(O)cc1)[C@@H](C)O)[C@@H](C)O)[C@@H](C)CC)[C@@H](C)CC)[C@@H](C)CC)C(=O)N[C@@H](CCC(=O)O)C(=O)NCC(=O)NCC(=O)N1CCC[C@H]1C(=O)N[C@@H](CO)C(=O)N[C@@H](CO)C(=O)NCC(=O)N[C@@H](C)C(=O)N1CCC[C@H]1C(=O)N1CCC[C@H]1C(=O)N1CCC[C@H]1C(=O)N[C@@H](CO)C(N)=O
For B4, the results for the Ki in experiment [1], in experiment [2] and in experiment [3] were 123 nM, 0.151 nM and 6.2 nM, respectively.

B5: Example 27 (peptide)
peptide: Y[Aib]EGTFTSDYSILK([AEEA-AEEA-γGlu-C20 diacid])DKIAQ[Aib]AFIEYLIEGGPSSGAPPPS-NH2
modifications: N-terminus assumed
SMILES: CC[C@H](C)[C@H](NC(=O)[C@H](CCCCN)NC(=O)[C@H](CC(=O)O)NC(=O)[C@H](CCCCNC(=O)COCCOCCNC(=O)COCCOCCNC(=O)CC[C@H](NC(=O)CCCCCCCCCCCCCCCCCCC(=O)O)C(=O)O)NC(=O)[C@H](CC(C)C)NC(=O)[C@@H](NC(=O)[C@H](CO)NC(=O)[C@H](Cc1ccc(O)cc1)NC(=O)[C@H](CC(=O)O)NC(=O)[C@H](CO)NC(=O)[C@@H](NC(=O)[C@H](Cc1ccccc1)NC(=O)[C@@H](NC(=O)CNC(=O)[C@H](CCC(=O)O)NC(=O)C(C)(C)NC(=O)[C@@H](N)Cc1ccc(O)cc1)[C@@H](C)O)[C@@H](C)O)[C@@H](C)CC)C(=O)N[C@@H](C)C(=O)N[C@@H](CCC(N)=O)C(=O)NC(C)(C)C(=O)N[C@@H](C)C(=O)N[C@@H](Cc1ccccc1)C(=O)N[C@H](C(=O)N[C@@H](CCC(=O)O)C(=O)N[C@@H](Cc1ccc(O)cc1)C(=O)N[C@@H](CC(C)C)C(=O)N[C@H](C(=O)N[C@@H](CCC(=O)O)C(=O)NCC(=O)NCC(=O)N1CCC[C@H]1C(=O)N[C@@H](CO)C(=O)N[C@@H](CO)C(=O)NCC(=O)N[C@@H](C)C(=O)N1CCC[C@H]1C(=O)N1CCC[C@H]1C(=O)N1CCC[C@H]1C(=O)N[C@@H](CO)C(N)=O)[C@@H](C)CC)[C@@H](C)CC
With B5, the figures for the Ki in experiment [1], in experiment [2] and in experiment [3] were 315 nM, 0.103 nM and 3.68 nM, respectively.
